According to patent US20240368239A1, “Novel bispecific protein and use thereof” (SL METAGEN, priority 2020, published 2024):
“Also recorded” adds a separate entry of the source. Like-named read-outs stand apart in the source and are kept apart here.

Key:
GLP-2 receptor = target: T1, GLP-2 receptor (Homo sapiens, UniProt O95838); assay: GLP-2 in vitro activity, cAMP/CNG channel membrane potential fluorescence assay (Human GLP2R ACTOne cell line)
T1 sequence (O95838 1-553): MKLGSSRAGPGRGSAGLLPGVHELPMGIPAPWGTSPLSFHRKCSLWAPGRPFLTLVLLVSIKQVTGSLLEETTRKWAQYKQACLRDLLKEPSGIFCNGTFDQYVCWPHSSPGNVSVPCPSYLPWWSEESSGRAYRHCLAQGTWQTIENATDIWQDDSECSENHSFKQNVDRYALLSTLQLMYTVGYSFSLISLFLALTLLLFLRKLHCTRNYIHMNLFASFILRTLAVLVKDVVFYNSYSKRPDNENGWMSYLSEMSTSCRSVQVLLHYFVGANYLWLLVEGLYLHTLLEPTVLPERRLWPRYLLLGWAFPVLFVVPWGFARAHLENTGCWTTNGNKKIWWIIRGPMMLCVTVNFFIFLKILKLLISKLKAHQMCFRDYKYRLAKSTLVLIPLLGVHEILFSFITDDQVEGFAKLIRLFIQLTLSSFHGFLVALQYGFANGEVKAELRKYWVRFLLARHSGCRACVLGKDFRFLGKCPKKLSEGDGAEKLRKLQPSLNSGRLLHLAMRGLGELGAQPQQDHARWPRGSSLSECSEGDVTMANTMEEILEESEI

B6 normal mice [1] = assay: Small intestine weight and body weight (GLP-1-Fc homodimer, GLP-2-Fc homodimer, MG12-1, MG12-4); format: in vivo; details: SC twice a week, 4 doses; homodimers 10 nmol/kg, MG12 20 nmol/kg
From the text: In addition, the present inventors conducted the same experiment as above while only varying the administered substance, in order to confirm whether the bispecific fusion proteins (MG12-1 and MG12-4) designed in a form other than MG12-5 also increase the small intestine weight and energy absorption rate of experimental animals. Specifically, PBS, 10 nmol/kg GLP-1-Fc homodimer, 10 nmol/kg GLP-2-Fc homodimer, 20 nmol/kg MG12-1, and 20 nmol/kg MG12-4 were subcutaneously administered. The drug was administered twice a week for a total of 4 times for 2 weeks. After 4 doses, the body weight was measured before autopsy, and the small intestine was excised after the autopsy and weighed. After the autopsy, the entire gastrointestinal tract of the mouse was separated, the mesentery and the pancreas were excised, and the area where the ileum and the cecum meet was cut to separate the small intestine and the large intestine. The separated small intestine was perfused and washed with 10% neutral formalin to remove the contents, and was weighed after removing the neutral formalin with an absorbent towel.

B6 normal mice [2] = assay: MG12 vs. GLP-1 and GLP-2 combo: body weight and small intestine changes; format: in vivo; details: 12 days SC, normalized to cumulative feed intake
Method: In particular, in order to observe changes in body weight and the small intestine following the substance administration, an experiment was conducted in B6 normal mice. […] After starting drug administration twice a week during the test period, feed intake was measured and expressed as cumulative feed intake, and pre-autopsy body weight was measured to calculate the body weight vs. feed intake. After the autopsy, the weight of the small intestine, and mucosal depth and villus height of the duodenum and the jejunum were measured. More specifically, after the autopsy, the entire gastrointestinal tract of the mouse was separated, the mesentery and the pancreas were excised, and the area where the ileum and the cecum meet was cut to separate the small intestine and the large intestine.

[3] = In vivo pharmacokinetics profile after subcutaneous administration (GLP-1-Fc ELISA and GLP-2-Fc ELISA); parameters: species or system male SD (Sprague Dawley) rats; details: GLP-1-Fc ELISA
Method: First, each protein was administered to 3 male SD (Sprague Dawley) rats per group at a dose of 1 mg/kg by subcutaneous (SC) route. Before injection and after 0.5, 1, 5, 10, 24, 48, 72, 120, and 168 hours after the injection, blood was collected and stored at room temperature for 30 minutes to aggregate. After centrifuging the aggregated blood at 3,000 rpm for 10 minutes, serum of each sample was collected and stored in a cryogenic freezer. Analyses were performed by an assay designed to specifically detect the GLP-1 site and Fc in the administered protein (GLP-1-Fc ELISA) and an assay designed to specifically detect the GLP-2 site and Fc in the administered protein (GLP-2-Fc ELISA). Specifically, a method of loading a biological sample on a plate coated with an antibody that binds to mouse-derived human immunoglobulin G4 (IgG4) to detect the target protein using a biotinylated anti-GLP-1 antibody (GLP-1-Fc ELISA), and a method of loading a biological sample on a plate coated with a monoclonal antibody that specifically reacts with GLP-2, to detect the target protein using a secondary antibody having HRP conjugated to mouse-derived human immunoglobulin G4 (IgG4) (GLP-2-Fc ELISA) were used. The obtained and prepared serum samples were loaded with appropriate dilutions to be analyzed at a position on a straight line of the standard curve.

B6 normal mice [4] = assay: Fluorescence spectrometry tissue distribution of Cy5.5-labelled substances; format: in vivo
Method: Next, the present inventors performed an experiment in B6 normal mice in order to observe the distribution in each tissue and organ according to the administration of a bispecific fusion protein according to an embodiment of the present invention. Cy5.5 was used as a fluorophore for tracking the distribution after administration of each substance. Buffer exchange was performed for each substance to be administered, MG12-1, MG12-4, and GLP-1Fc homodimer with boric acid buffer (pH 8.5), and with reference to the protocol of the Cy5.5 labeling kit (GE, #PA15605) were allowed to react with an appropriate amount of Cy5.5 overnight under refrigeration conditions. Unreacted Cy5.5 in the reaction-completed substance was removed through the PBS substitution process, and whether Cy5.5 was reacted well was confirmed through the final SDS-PAGE. Each administered substance was diluted with 10% DMSO/PBS to have the same fluorescence intensity using an ELISA plate reader capable of measuring fluorescence intensity before being administered.

Balb/c-nude mice = assay: PET-MRI tissue distribution of Zr89-labelled proteins; format: in vivo; details: Zr89 label, SC
From the text: Next, the present inventors performed an experiment in Balb/c-nude mice in order to observe the distribution in each tissue organ following the administration of a substance. Zr^89 was used as a radiotracer for tracking the distribution after administration of each substance. Each substance to be administered was labeled with Zr^89 as a reaction condition and a chelator selected through a preliminary test. The labeled Zr^89-protein was purified using a PD-10 column, and Zr^89 labeling efficiency and purity were confirmed using Radio TLC and SEC-HPLC. The labeling efficiency of the Zr^89-protein of 90% or more and the purity of 80% or more were determined to be appropriate, and the labeled protein was administered subcutaneously at 0.2 mCi/0.2 cc. Each administration substance was administered to three animals and static images for 20 minutes were obtained using PET-MRI at 1 hour, 6 hours, 24 hours, 48 hours, and 168 hours after injection. Through image analysis, the distribution of drugs as a function of time in the liver, small intestine, and large intestine was expressed as SUV (Standardized Uptake Value) and comparatively analyzed.

[5] = 24 hours after administration, Cy5.5 label

B1: MG12-2: Knob/hole Fc heterodimer: GLP-2 (SEQ 17), glycan linker, second fusion protein SEQ 33; GLP-1 (SEQ 1), first fusion protein SEQ 25 (protein)
chain 1: HGDGSFSDEMNTILDNLAARDFINWLIQTKITDGGGGSGGGGSGGGGSAKNTTAPATTRNTTRGGEEKKKEKEKEEQEERTHTCPPCPSHTQPLGVFLFPPKPKDTLMISRTPEVTCVVVDVSQEDPEVQFNWYVDGVEVHNAKTKPREEQFNSTYRVVSVLTVLHQDWLNGKEYKCKVSNKGLPSSIEKTISKAKGQPREPQVYTLPPCQEEMTKNQVSLWCLVKGFYPSDIAVEWESNGQPENNYKTTPPVLDSDGSFFLYSRLTVDKSRWQEGNVFSCSVMHEALHNHYTQKSLSLSLGK
chain 2: HGEGTFTSDVSSYLEGQAAKEFIAWLVKGRGGGGGSGGGGSGGGGSEKEKEEQEERTHTCPPCPSHTQPLGVFLFPPKPKDTLMISRTPEVTCVVVDVSQEDPEVQFNWYVDGVEVHNAKTKPREEQFNSTYRVVSVLTVLHQDWLNGKEYKCKVSNKGLPSSIEKTISKAKGQPREPQVCTLPPSQEEMTKNQVSLSCAVKGFYPSDIAVEWESNGQPENNYKTTPPVLDSDGSFFLVSRLTVDKSRWQEGNVFSCSVMHEALHNHYTQKSLSLSLGK
GLP-2 receptor
  GLP-2 activity lower than that of other variants: 4-5 times

B2: MG12-4: Knob/hole Fc heterodimer: GLP-1/Exendin 4 hybrid (SEQ 5), glycan linker, first fusion protein SEQ 27; GLP-2 (SEQ 17), second fusion protein SEQ 34 (protein)
chain 1: HGEGTFTSDVSSYLEGQAAKEFIAWLVKGGPSSGAPPPSGGGGGSGGGGSGGGGSAKNTTAPATTRNTTRGGEEKKKEKEKEEQEERTHTCPPCPSHTQPLGVFLFPPKPKDQLMISRTPEVTCVVVDVSQEDPEVQFNWYVDGVEVHNAKTKPREEQFNSTYRVVSVLTVLHQDWLNGKEYKCKVSNKGLPSSIEKTISKAKGQPREPQVYTLPPCQEEMTKNQVSLWCLVKGFYPSDIAVEWESNGQPENNYKTTPPVLDSDGSFFLYSRLTVDKSRWQEGNVFSCSVLHEALHNHYTQKSLSLSLGK
chain 2: HGDGSFSDEMNTILDNLAARDFINWLIQTKITDGGGGSGGGGSGGGGSEKEKEEQEERTHTCPPCPSHTQPLGVFLFPPKPKDQLMISRTPEVTCVVVDVSQEDPEVQFNWYVDGVEVHNAKTKPREEQFNSTYRVVSVLTVLHQDWLNGKEYKCKVSNKGLPSSIEKTISKAKGQPREPQVCTLPPSQEEMTKNQVSLSCAVKGFYPSDIAVEWESNGQPENNYKTTPPVLDSDGSFFLVSRLTVDKSRWQEGNVFSCSVLHEALHNHYTQKSLSLSLGK
B6 normal mice [1]
  small intestine weight: greater increase in small intestine weight than the GLP-2-Fc homodimer administered group; also recorded: superior effect of increasing small intestine weight
  weight change before autopsy (body weight): numerical increase in body weight
B6 normal mice [2]
  body weight increase vs. feed intake: statistically significant body weight increase compared to the co-administered group
[3]
  terminal half-life, rank among MG12-1, 3, 4 and 5: shortest half-life
B6 normal mice [4]; [5]
  Average fluorescence intensity, Brain: 297
  Average fluorescence intensity, Large intestine: 2343
  Average fluorescence intensity, Small intestine: 4302
B6 normal mice [4]; compared to GLP-1-Fc homodimer
  distribution in the small intestine and the large intestine: larger
Balb/c-nude mice
  distribution to the liver (SUV): reduced or showed no difference compared to Fc
  distribution to the small intestine and large intestine (SUV): significantly high compared to that of GLP-1-Fc homodimer and GLP-2-Fc homodimer

B3: GLP-2-Fc homodimer: GLP-2 homodimer fused with Fc not containing the Knobs-into-Holes (KiH) structure (protein)
chain: B1 chain 2
modifications: first fusion protein of bispecific fusion protein containing GLP-1 analogue
notes: GLP-2 homodimer fused with Fc not containing the Knobs-into-Holes (KiH) structure
B6 normal mice [1]
  small intestine weight: statistically significant increase
  weight change before autopsy (body weight): no change
GLP-2 receptor; Table 3, GLP-2 activity
  EC50: 0.44 nM
GLP-2 receptor; compared to GLP-2-Fc homodimer
  relative activity (%), GLP-2 activity: 100%
GLP-2 receptor; read-out: EC50, GLP-2 activity, Table 4 experiment
  EC50: 7.7 nM
Balb/c-nude mice; 1-168 hours
  SUV (Standardized Uptake Value) in liver, small intestine and large intestine: SUV values were increased compared to Fc in all of the three organs
